Values belong to the substance of their own block, whether it stands above or below them.
Columns and labels:
Assay in all cases: SEC; protein alone, prior to DNA binding; Superdex 200, 20 mM Tris pH 7.5, 0.2 M NaCl, 5 mM DTT, 4 °C, 50 μL/min; peaks assigned to monomer and dimer by elution times
[1] = molecular target: L-Tgf2TPase(D228N, E648Q) (goldfish (Carassius auratus))
[2] = molecular target: S1-Tgf2TPase (truncated Tgf2 transposase, 110-686 aa) (goldfish (Carassius auratus))
[3] = molecular target: S2-Tgf2TPase (truncated Tgf2 transposase, 124-686 aa) (goldfish (Carassius auratus))
[4] = molecular target: full length Tgf2 transposase (L-Tgf2TPase) (goldfish (Carassius auratus))

stoichiometry N [1]: 2
Substance: L-Tgf2TPase(D228N, E648Q) (enzyme)

stoichiometry N [2]: 2
Substance: S1-Tgf2TPase (truncated Tgf2 transposase, 110-686 aa) (domain or fragment)

stoichiometry N [3]: 2
Substance: S2-Tgf2TPase (truncated Tgf2 transposase, 124-686 aa) (domain or fragment)

stoichiometry N [4]: 2
Substance: full length Tgf2 transposase (L-Tgf2TPase) (enzyme)

Reference: PMC4890040
